Laboratory results taken from patent publication US20200109188A1 (AstraZeneca / MedImmune, published 2020).
Like-named read-outs stand apart in the source and are kept apart here.

Key:
Assay in all cases: cell-based or functional assay
[1] = biological target: HA of ca A/mallard/Alberta/89/85 (H6N2) virus (influenza A virus)
[2] = biological target: T1, HA of ca A/New Caledonia/20/99 (H1N1) virus (influenza A virus)
[3] = biological target: T2, HA of ca A/swine/Missouri/06 (H2N3) virus (influenza A virus)
[4] = biological target: HA of ca A/Perth/16/09 (H3N2) virus (influenza A virus)
[5] = biological target: HA of ca A/Japan/57 (H2N2) virus (influenza A virus)
[6] = biological target: HA of A/Wisconsin/67/05 (H3N2) virus (influenza A virus)
[7] = biological target: HA of ca A/teal/Hong Kong/W312/97 (H6N1) virus (influenza A virus)
[8] = biological target: HA of ca A/Hong Kong/213/03 (H5N1) virus (influenza A virus)
[9] = biological target: HA of ca A/Texas/36/91 (H1N1) virus (influenza A virus)
[10] = biological target: HA of ca A/Panama/2007/99 (H3N2) virus (influenza A virus)
[11] = biological target: HA of ca A/Beijing/262/95 (H1N1) virus (influenza A virus)
[12] = biological target: HA of A/Hong Kong/8/68 (H3N2) virus (influenza A virus)
[13] = biological target: T3, HA of ca A/Netherlands/219/03 (H7N7) virus (influenza A virus)
[14] = biological target: HA of ca A/Anhui/1/13 (H7N9) virus (influenza A virus)
[15] = biological target: HA of ca A/Vietnam/1203/04 (H5N1) virus (influenza A virus)
[16] = biological target: HA of A/Victoria/361/11 (H3N2) virus (influenza A virus)
[17] = biological target: T4, HA of ca A/chicken/Hong Kong/G9/97 (H9N2) virus (influenza A virus)
[18] = biological target: HA of A/Fort Monmouth/1/47 (H1N1) virus (influenza A virus)
[19] = biological target: HA of A/Kawasaki/9/86 (H1N1) virus (influenza A virus)
[20] = biological target: HA of A/New Jersey/8/76 (H1N1) virus (influenza A virus)
[21] = biological target: T5, HA of A/Victoria/3/75 (H3N2) virus (influenza A virus, UniProt P03435 17-567)
[22] = biological target: HA of H3-LA87 (A/Los Angeles/7/09 (H3N2)) virus (influenza A virus)
[23] = biological target: T6, HA of ca A/Brit. Columbia/CN-6/04 (H7N3-LP) virus (influenza A virus)
HA of H1-BS10 virus = biological target: HA of H1-BS10 virus
[24] = biological target: HA of ca A/Sydney/5/97 (H3N2) virus (influenza A virus)
[25] = biological target: T1, HA of ca A/New Caledonia/20/99 (H1N1) …; remark: listed apart in the source
[26] = biological target: T2, HA of ca A/swine/Missouri/06 (H2N3) …; remark: listed apart in the source
[27] = biological target: HA of ca A/Perth/16/09 (H3N2) virus (influenza A virus); remark: listed apart in the source
[28] = biological target: HA of A/Wyoming/03/03 (H3N2) virus (influenza A virus)
[29] = biological target: HA of ca A/Texas/36/91 (H1N1) virus (influenza A virus); remark: listed apart in the source
[30] = biological target: HA of ca A/Panama/2007/99 (H3N2) virus (influenza A virus); remark: listed apart in the source
[31] = biological target: HA of ca A/Beijing/262/95 (H1N1) virus (influenza A virus); remark: listed apart in the source
[32] = biological target: T3, HA of ca A/Netherlands/219/03 (H7N7) …; remark: listed apart in the source
[33] = biological target: HA of ca A/Vietnam/1203/04 (H5N1) virus (influenza A virus); remark: listed apart in the source
[34] = biological target: T4, HA of ca A/chicken/Hong Kong/G9/97 …; remark: listed apart in the source
[35] = biological target: HA of A/Fort Monmouth/1/47 (H1N1) virus (influenza A virus); remark: listed apart in the source
[36] = biological target: HA of A/Kawasaki/9/86 (H1N1) virus (influenza A virus); remark: listed apart in the source
[37] = biological target: T5, HA of A/Victoria/3/75 (H3N2) virus; remark: listed apart in the source
[38] = biological target: T6, HA of ca A/Brit. Columbia/CN-6/04 …; remark: listed apart in the source
[39] = biological target: HA of ca A/Sydney/5/97 (H3N2) virus (influenza A virus); remark: listed apart in the source

T5 sequence (P03435 17-567 limits assumed): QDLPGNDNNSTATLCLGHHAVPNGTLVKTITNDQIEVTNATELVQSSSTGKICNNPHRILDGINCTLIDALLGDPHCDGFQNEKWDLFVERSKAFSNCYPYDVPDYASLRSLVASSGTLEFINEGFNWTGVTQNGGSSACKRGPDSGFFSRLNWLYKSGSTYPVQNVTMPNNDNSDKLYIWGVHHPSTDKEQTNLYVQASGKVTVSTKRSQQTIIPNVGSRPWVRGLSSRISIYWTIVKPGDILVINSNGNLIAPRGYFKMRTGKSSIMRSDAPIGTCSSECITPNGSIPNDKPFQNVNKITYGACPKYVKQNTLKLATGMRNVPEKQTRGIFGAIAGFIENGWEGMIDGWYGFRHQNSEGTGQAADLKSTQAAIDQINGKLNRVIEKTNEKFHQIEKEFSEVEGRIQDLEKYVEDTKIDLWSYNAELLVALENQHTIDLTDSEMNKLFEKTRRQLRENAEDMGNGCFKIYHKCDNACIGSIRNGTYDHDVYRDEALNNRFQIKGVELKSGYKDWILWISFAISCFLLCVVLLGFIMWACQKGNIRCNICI

B1: Antibody 3 (antibody, V domains shown)
VH: QVQLQESGPGLVKPSQTLSLTCAISGDSVSSNNAVWNWIRQSPSRGLEWLGRTYYRSKWYNDYAESVKSRITVNPDTSKNQFSLHLKSVTPEDTAVFYCVRSGHITVFGVNVDAFDMWGQGTMVTVSS
VL: DIQMTQSPSSLSASVGDRVTITCRTSQSLSSYLHWYQQKPGKAPKLLIYAASSLQSGVPSRFSGSGSGTDFTLTISSLQPEDFATYYCQQSRTFGQGTKVEIK
Neutralization IC50, H6-AB85 [1]: 0.69 µg/mL | Neutralization IC50, H1-Ncal99 [2]: 1.16 µg/mL | Neutralization IC50, H2-MO06 [3]: 1.09 µg/mL | Neutralization IC50, H3-Perth09 [4]: 1.3 µg/mL | Neutralization IC50, H2-JP57 [5]: 0.46 µg/mL | Neutralization IC50, H3-Wl05 [6]: 2.62 µg/mL | Neutralization IC50, H6-HK97 [7]: 0.63 µg/mL | Neutralization IC50, H5-HK03 [8]: 0.71 µg/mL | Neutralization IC50, H1-TX91 [9]: 0.92 µg/mL | Neutralization IC50, H3-Pa99 [10]: 9 µg/mL | Neutralization IC50, H1-BJ95 [11]: 2.98 µg/mL | Neutralization IC50, H3-HK68 [12]: 1.37 µg/mL | Neutralization IC50, H7-NLD03 [13]: 4.74 µg/mL | Neutralization IC50, H7-ANU13 [14]: 4.26 µg/mL | Neutralization IC50, H5-VM04 [15]: 1.19 µg/mL | Neutralization IC50, H3-VC11 [16]: 3.4 µg/mL | Neutralization IC50, H9-HK97 [17]: 1.18 µg/mL | Neutralization IC50, H1-FM47 [18]: 1.04 µg/mL | Neutralization IC50, H1-Kaw86 [19]: 1.01 µg/mL | Neutralization IC50, H1-NJ76 [20]: 0.57 µg/mL | Neutralization IC50, H3-Vic75 [21]: 1.12 µg/mL | Neutralization IC50, H3-LA87 [22]: 2.04 µg/mL | Neutralization IC50, H7-BC04 [23]: 2.95 µg/mL | Neutralization IC50, H1-BS10 (HA of H1-BS10 virus): 2.16 µg/mL | Neutralization IC50, H3-Syd97 [24]: 6.5 µg/mL | Neutralization IC50, H1-Ncal99 [25]: 0.79 µg/mL | Neutralization IC50, H2-MO06 [26]: 2.27 µg/mL | Neutralization IC50, H3-Perth09 [27]: 1.49 µg/mL | Neutralization IC50, H3-Wy03 [28]: 0.63 µg/mL | Neutralization IC50, H1-TX91 [29]: 0.6 µg/mL | Neutralization IC50, H3-Pa99 [30]: 17.7 µg/mL | Neutralization IC50, H1-BJ95 [31]: 3.41 µg/mL | Neutralization IC50, H7-NLD03 [32]: 4.78 µg/mL | Neutralization IC50, H5-VM04 [33]: 2.11 µg/mL | Neutralization IC50, H9-HK97 [34]: 1.79 µg/mL | Neutralization IC50, H1-FM47 [35]: 0.92 µg/mL | Neutralization IC50, H1-Kaw86 [36]: 0.58 µg/mL | Neutralization IC50, H3-Vic75 [37]: 0.75 µg/mL | Neutralization IC50, H7-BC04 [38]: 4.72 µg/mL | Neutralization IC50, H3-Syd97 [39]: 3.75 µg/mL
